± gives the half width of the 95% confidence interval.
assay: folding stability dG unfold from chymotrypsin proteolysis; higher = more stable
Protocol: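 Folding stability of de novo designed mini-proteins (<80 aa, no Cys; designed by TrROS, TrMRF, ProteinMPNN and the joint model) was measured by cDNA display proteolysis with trypsin and chymotrypsin. Each protease was used at 11 concentrations in a threefold dilution series plus a no-protease condition. K50 was inferred by Bayesian fitting of sequencing counts, and dG unfold was derived against a sequence-predicted unfolded-state K50 (Tsuboyama et al. method). Sequences shown include variable-length N-terminal GS-type padding (SAGGSAGG...) inside a display construct carrying a PA tag. Rows were kept only if the AF2 dimer inter-PAE was >15, to exclude likely homo-oligomers.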

| Sequence | folding stability dG unfold |
| --- | --- |
| SAGGSAGGSASVGLLSVSTTPSGPGTTVTATTALPDGTVRTETRTEAGDGTATATTVTPLAASAGGSAGGSA [r18_79_JUSTAS] | 0.271 ± 0.069 kcal/mol |
| SAGGMSVEVDWGETTRRLTFYDESGNPVADAEEPVLDPLTGLSTSRGVSLEELARRAGVPVELPERRSAGGS [r16_778_JUSTAS] | 0.764 ± 0.025 kcal/mol |
| SAGGSAMFTSSTSTDPATGLRRTTTLFPDSSAAVTTTVAVPPVPPLSPEAVAAGEAAAAAGRPPAVSAGGSA [r15_631_JUSTAS] | 0.59 ± 0.17 kcal/mol |
| SAGGNIEIEIPIPKEDLKDNDFEEAKEYVREYVRMIAREQGLPPGFPIKDIDVQPHPNYYMVKIEIPSAGGS [r16_368_TrROS] | 0.868 ± 0.26 kcal/mol |
| SAGGMTIEVPDGFRIDGFRPFPDGRSAVLVRYKGTGKVEIFPFGDRVPEASADEPVEVEVVPIPPELLSAGG [r13_173_TrMRF] | 0.155 ± 0.21 kcal/mol |
| SMKTYTFTDPNNGIKYTITIDPNKPLVNVTVTKPGGEPVETQTVSVAPGKINLSLNVDGKPISISISLPESA [r9_385_JUSTAS] | 5.29 ± 0.15 kcal/mol |
| SAGGMTIPLEFEFESEEEAKEKAEEIAEELAKSFPEYEVEVKIEIKPVKDPNSDTTKWRVKMEITVGPSAGG [r13_545_JUSTAS] | 4.38 ± 0.2 kcal/mol |
| SGRIKDVIMERDDNGGGNIMIMKLGNGEMEHIPPGEKLEIPLPPDDTLYLMVFDPNDGEPIETEEIKVDDSA [r9_209_TrROS] | -0.367 ± 0.35 kcal/mol |
| SAGGSAGGSAGGMTLTVKDPASDEWTTVDLSPEQLPEVRAAVPEGPVTFELEASDSVIELSAGGSAGGSAGG [r7_188_JUSTAS] | 0.94 ± 0.061 kcal/mol |
| SAGGSAGGSAGGPPPGDKIEIIVIKFEPRYDPDGEPKNPRIDSIEVITIPADDPDDLLEASAGGSAGGSAGG [r7_439_TrROS] | 0.805 ± 0.079 kcal/mol |
| SAGRPPEALREEVSEETITIPVPSTDSDEAPALTTKVTKTTTRLPTPVTTTTTTTTYPDGTTTTTTTAASAG [r5_580_JUSTAS] | 0.285 ± 0.033 kcal/mol |
| SAGGSAGGSTLVFAPDDTLYLRIYLPETGGWRYIEVPAGQADSVARPLGAVRLEAYRRDEPVPSAGGSAGGS [r12_294_TrMRF] | 0.83 ± 0.23 kcal/mol |
| SAGGSAGGGPYKTSYAIVDGSVVASTEGDPETGVVTSTFTFDGSDVEYTTPATPGEAVTRTVSLSAGGSAGG [r6_972_JUSTAS] | 0.797 ± 0.059 kcal/mol |
| SAGGDPEEQNKMMERMEKMKPIEPEPVRIPNGIEIEYWPAYGFVEIETWYRDPDGEPKPIGEGWVPVSAGGS [r16_243_TrROS] | 0.286 ± 0.094 kcal/mol |
| SAGGSAGGSAGGSMKTEEVVYVKTPDAWVRLKKEEAEKLEKETGVKIERESFTLPAGALESAGGSAGGSAGG [r7_185_JUSTAS] | 0.89 ± 0.17 kcal/mol |
| SAGGSAGGSTVEELKKKAKELGLEVTVEKNKKDKKKITITVSEEAKKKLKEIAKEENIKVEIKSAGGSAGGS [r12_74_TrROS_Hall] | 0.0632 ± 0.051 kcal/mol |
| SAGGSAGGSMLKVRIKIEIDGKTLEVEIEVPPGTTIEELAEALKKLFPGKEVKIVSVEVYELPSAGGSAGGS [r12_427_TrROS_Hall] | 4.23 ± 0.14 kcal/mol |
| SAGGSAGGSAGMKYIEEAKAKAKPDKKLKITIPPSLPVEEVRKELLEEVPIDDVEFIKNLSAGGSAGGSAGG [r11_524_JUSTAS] | -0.491 ± 0.26 kcal/mol |
| SAGGSAGGGPDLKVTDIEFDPETGEIRIRTEAGGKLVAEVTIKGAPPVPVYPDKDGNWYPAGAKSAGGSAGG [r6_832_TrMRF] | 0.986 ± 0.062 kcal/mol |
| SAGGSAGGSAEVTFKKVSFSPPENTVYVSEVKAKLYVGEDDSLKFKVEPVKVEKVSPADLLAKSAGGSAGGS [r12_374_TrMRF] | 0.0476 ± 0.16 kcal/mol |

assay: folding stability dG unfold (combined trypsin and chymotrypsin); higher = more stable
Summary of the method: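 Digests were run with trypsin and chymotrypsin at 11 concentrations in threefold dilutions, plus a no-protease condition, on designed mini-proteins in a PA-tagged cDNA display construct. The mini-proteins were under 80 residues, had no cysteine, and were kept only when AlphaFold2 dimer inter-PAE was above 15. After sequencing, Bayesian fitting of the counts gave K50, from which unfolding free energy was derived against a sequence-predicted unfolded-state K50 and a shared folded-state K50, per protease or combined.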

| Sequence | folding stability dG unfold |
| --- | --- |
| SAGGSAGGSASVGLLSVSTTPSGPGTTVTATTALPDGTVRTETRTEAGDGTATATTVTPLAASAGGSAGGSA [r18_79_JUSTAS] | -0.295 ± 0.15 kcal/mol |
| SAGGMSVEVDWGETTRRLTFYDESGNPVADAEEPVLDPLTGLSTSRGVSLEELARRAGVPVELPERRSAGGS [r16_778_JUSTAS] | 0.337 ± 0.058 kcal/mol |
| SAGGSAMFTSSTSTDPATGLRRTTTLFPDSSAAVTTTVAVPPVPPLSPEAVAAGEAAAAAGRPPAVSAGGSA [r15_631_JUSTAS] | < -1 kcal/mol |
| SAGGNIEIEIPIPKEDLKDNDFEEAKEYVREYVRMIAREQGLPPGFPIKDIDVQPHPNYYMVKIEIPSAGGS [r16_368_TrROS] | 0.401 ± 0.16 kcal/mol |
| SAGGMTIEVPDGFRIDGFRPFPDGRSAVLVRYKGTGKVEIFPFGDRVPEASADEPVEVEVVPIPPELLSAGG [r13_173_TrMRF] | -0.353 ± 0.14 kcal/mol |
| SMKTYTFTDPNNGIKYTITIDPNKPLVNVTVTKPGGEPVETQTVSVAPGKINLSLNVDGKPISISISLPESA [r9_385_JUSTAS] | 5.37 ± 0.2 kcal/mol |
| SAGGMTIPLEFEFESEEEAKEKAEEIAEELAKSFPEYEVEVKIEIKPVKDPNSDTTKWRVKMEITVGPSAGG [r13_545_JUSTAS] | 4.56 ± 0.31 kcal/mol |
| SGRIKDVIMERDDNGGGNIMIMKLGNGEMEHIPPGEKLEIPLPPDDTLYLMVFDPNDGEPIETEEIKVDDSA [r9_209_TrROS] | < -1 kcal/mol |
| SAGGSAGGSAGGMTLTVKDPASDEWTTVDLSPEQLPEVRAAVPEGPVTFELEASDSVIELSAGGSAGGSAGG [r7_188_JUSTAS] | 0.409 ± 0.059 kcal/mol |
| SAGGSAGGSAGGPPPGDKIEIIVIKFEPRYDPDGEPKNPRIDSIEVITIPADDPDDLLEASAGGSAGGSAGG [r7_439_TrROS] | 0.348 ± 0.34 kcal/mol |
| SAGRPPEALREEVSEETITIPVPSTDSDEAPALTTKVTKTTTRLPTPVTTTTTTTTYPDGTTTTTTTAASAG [r5_580_JUSTAS] | -0.061 ± 0.11 kcal/mol |
| SAGGSAGGSTLVFAPDDTLYLRIYLPETGGWRYIEVPAGQADSVARPLGAVRLEAYRRDEPVPSAGGSAGGS [r12_294_TrMRF] | 0.123 ± 0.15 kcal/mol |
| SAGGSAGGGPYKTSYAIVDGSVVASTEGDPETGVVTSTFTFDGSDVEYTTPATPGEAVTRTVSLSAGGSAGG [r6_972_JUSTAS] | 0.346 ± 0.047 kcal/mol |
| SAGGDPEEQNKMMERMEKMKPIEPEPVRIPNGIEIEYWPAYGFVEIETWYRDPDGEPKPIGEGWVPVSAGGS [r16_243_TrROS] | -0.147 ± 0.12 kcal/mol |
| SAGGSAGGSAGGSMKTEEVVYVKTPDAWVRLKKEEAEKLEKETGVKIERESFTLPAGALESAGGSAGGSAGG [r7_185_JUSTAS] | 0.405 ± 0.24 kcal/mol |
| SAGGSAGGSTVEELKKKAKELGLEVTVEKNKKDKKKITITVSEEAKKKLKEIAKEENIKVEIKSAGGSAGGS [r12_74_TrROS_Hall] | -0.473 ± 0.47 kcal/mol |
| SAGGSAGGSMLKVRIKIEIDGKTLEVEIEVPPGTTIEELAEALKKLFPGKEVKIVSVEVYELPSAGGSAGGS [r12_427_TrROS_Hall] | 4.47 ± 0.25 kcal/mol |
| SAGGSAGGSAGMKYIEEAKAKAKPDKKLKITIPPSLPVEEVRKELLEEVPIDDVEFIKNLSAGGSAGGSAGG [r11_524_JUSTAS] | < -1 kcal/mol |
| SAGGSAGGGPDLKVTDIEFDPETGEIRIRTEAGGKLVAEVTIKGAPPVPVYPDKDGNWYPAGAKSAGGSAGG [r6_832_TrMRF] | 0.517 ± 0.12 kcal/mol |
| SAGGSAGGSAEVTFKKVSFSPPENTVYVSEVKAKLYVGEDDSLKFKVEPVKVEKVSPADLLAKSAGGSAGGS [r12_374_TrMRF] | -0.439 ± 0.16 kcal/mol |

From the supplement of paper PMC12764529
